This series is described as follows: Pore exclusion gradient gel electrophoresis of peptide/lipid complexes. The class given is physicochemical. The settings on record: range over complexes, ratio not stated. As for the experimental part:
Pore exclusion electrophoresis was performed on the resulting peptide/lipid complexes (FIG. 7), on 4-25% olyacrylamide gels using non-denaturing conditions for 24 to 36 hours. Gels were fixed and stained in the presence of 4% formaldehyde. DMPC is mixed with a trace of fluorescent marker (NBD). Different ratios of protein:lipid (1:1, 1:2.5, 1:5, 1:7.5) were incubated for 24-36 hours.

This note sets out measurements from patent publication US4643988A, “Amphipathic peptides” (Research Corporation, priority 1984, dated 1987).

Turning to “Apo A-I: apolipoprotein A-I, major HDL apoprotein component, isolated from human serum”, the Stokes diameter is recorded as 80-200 Å.
